This note sets out measurements from patent US20110008340A1 (published 2011).

For assay [1], the target named is T1, TSR6 peptide (human).
T1 construct: Synthetic peptide 'corresponding to TSR6'; also called TSR6 segment of properdin
T1 peptide: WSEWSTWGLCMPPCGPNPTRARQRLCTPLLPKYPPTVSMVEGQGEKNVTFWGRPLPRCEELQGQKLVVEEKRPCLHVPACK
The assay can be described thus: ELISA on plate-bound peptide. As for the experimental part: (§1) Screening Assay: Microtiter plates were coated with peptide⁷¹⁻¹¹⁰. (2.0 μg/50 μl per well), TSR5 and TSR6 peptides in phosphate buffered saline (PBS) overnight at 4° C. After aspirating the peptide solutions, the wells were blocked with PBS containing 1% bovine serum albumin (BSA) for 2 hours at room temperature. Wells without peptide coating served as background controls. […] The plate was incubated at room temperature for 1-hour. The plate developed using standard ELISA methods described above.
On the technique in general: ELISA stands for enzyme-linked immunosorbent assay.

Assay [2] concerns the target T2, TSR5 peptide (human).
T2 construct: Synthetic peptide 'corresponding to TSR5'; also called TSR5 segment of properdin
T2 peptide: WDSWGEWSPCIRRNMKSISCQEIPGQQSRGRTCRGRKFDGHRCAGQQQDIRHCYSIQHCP
The assay can be described thus: ELISA on plate-bound peptide. As to the method:
as §1

For assay [3], the target named is human C3b (human, UniProt P01024 23-667; P01024 749-1663, limits assumed). Kind of assay: cell-based or functional assay.

B1: MoAb^71-110 (antibody, V domains shown)
VH: QVLLQQSAPELARPGASVKMSCTASGYIFTNYPIHWVKQRPGQGLEWIGFIDPGGGYDEPDERFRDRATLTADKSSSTAYMQLSSLTSEDSAIYYCARRGGGYYLDYWGQDTTLTVSA
VL: SIVMTQTPKFLLVSAGDRITITCKASQSVNNDVAWYQQKPGQSPKLLIYYASNRYTGVPDRFTGSGYGTDFTFTITTVKAEDLAVYFCQQDYSSPLTFGAGTKLELK
notes: Mouse monoclonal antibody from a hybridoma; also called MoAbB^71-110; anti properdin antibody clone MoAb^71-110
B1: the binding result in assay [1] and in assay [2] was “no binding” each time. Regarding RYRRCVGWNG [Properdin peptide RYRRCVGWNG (99-108)], in assay [3], the “IC50 of inhibition of MAC (C5b-9) formation, LPS-coated wells, 10% normal human serum” value is around 50 µg/mL.
